# Results reported in patent US20030077290A1 (PHADIA, published 2003).
# B1: rPhl p 6 aa 1-33 (peptide)
# chain: GKATTEEQKLIEDINASFRAAMATTANVPPADK
# Molecular target: basophil-bound IgE of a grass pollen allergic patient
# Test: cell-based or functional assay
binder,measurement,value
B1,reduction of histamine release compared to complete rPhl p 6,~1000 fold
